{
  "source": "paper PMC3569056",
  "origin": "cited, not measured here",
  "target": "Cys22 (UniProt position 23, FIKPTCPYCRR)",
  "assay": "chemical modification",
  "data": [
    {"substance": "Glutaredoxin 1 (hGrx1, thioltransferase) (Homo sapiens)", "values": [
      {"measurement": "pKa", "value": 3.5}
    ]}
  ]
}
